{
  "source": "the RNAGym collection of RNA variant scans (doi:10.1021/acssynbio.7b00057)",
  "parents": {"B1": {"name": "Pistol ribozyme (parent)", "chain": "GGGUCGUUGUUCCAUAAUCGCGUGGAUAUGGCACGCAAGUUUCUACCGGGCACCGUAAAUGUCCGACUGGAGCCGUUCGGGCGGCUAUAAACAGACCUCAGGCCCGAAGCGUGGCGGCACCUGCCGCCGGUGGUAAAAAAGAUCGGAAGAGCACACGUCU"}},
  "data": [
    {"variants_of": "B1", "experiment": "aptazyme ON/OFF ratio, guanine; higher = stronger switching; co-transcriptional cleavage with and without guanine", "values": [
      {"variant": "U7C U8C U10G U11G C12A C13G", "aptazyme ON/OFF ratio": 1.11},
      {"variant": "U7A U8G U10G U11G C12U C13U", "aptazyme ON/OFF ratio": 1.38},
      {"variant": "U7C G9U U11G", "aptazyme ON/OFF ratio": 1.35},
      {"variant": "U7C U8A G9C U10A C12A C13U", "aptazyme ON/OFF ratio": 1.21},
      {"variant": "U8C G9U U10A U11C", "aptazyme ON/OFF ratio": 1.06},
      {"variant": "G9C U10A C12U", "aptazyme ON/OFF ratio": 1.6},
      {"variant": "U7C G9U U10G U11G C13A", "aptazyme ON/OFF ratio": 1.09},
      {"variant": "G9U U10G U11C C12A", "aptazyme ON/OFF ratio": 1.69},
      {"variant": "U7A G9C U10C U11A C12A C13A", "aptazyme ON/OFF ratio": 1.07},
      {"variant": "U7A U8G U10G U11G C12A C13A", "aptazyme ON/OFF ratio": 1.22},
      {"variant": "U8A G9U U11C C12A C13A", "aptazyme ON/OFF ratio": 1.14},
      {"variant": "U7C U8C G9C U10A U11C C12U C13A", "aptazyme ON/OFF ratio": 1.13},
      {"variant": "U8C G9A U10G U11A C12A", "aptazyme ON/OFF ratio": 1.19},
      {"variant": "U7C U8A G9C U11C C12G C13G", "aptazyme ON/OFF ratio": 1.12},
      {"variant": "U7G U8C G9A U10A C13G", "aptazyme ON/OFF ratio": 1.06},
      {"variant": "U7A U8A U10A U11A C12G C13U", "aptazyme ON/OFF ratio": 1.13},
      {"variant": "U7A U8A C12G C13G", "aptazyme ON/OFF ratio": 1.35},
      {"variant": "U7G G9C U11A C12G", "aptazyme ON/OFF ratio": 1.65},
      {"variant": "U7G U8A G9C U10G U11C", "aptazyme ON/OFF ratio": 1.03},
      {"variant": "U7A U8A G9C C12A", "aptazyme ON/OFF ratio": 1.22},
      {"variant": "U7C U8C U10C C12A C13G", "aptazyme ON/OFF ratio": 1.14},
      {"variant": "U8G G9C U10C U11C C12A C13U", "aptazyme ON/OFF ratio": 1.07},
      {"variant": "U8G G9C U11G C12A C13G", "aptazyme ON/OFF ratio": 1.05},
      {"variant": "U7A U8G U10G U11C C12A C13U", "aptazyme ON/OFF ratio": 1.51},
      {"variant": "U7A U8C U10C U11A C12A C13A", "aptazyme ON/OFF ratio": 1.18},
      {"variant": "U7A U8C G9A C12A C13A", "aptazyme ON/OFF ratio": 1.18},
      {"variant": "U7G G9A U10C U11A C13A", "aptazyme ON/OFF ratio": 1.17},
      {"variant": "U7G U8A U11G C12G C13U", "aptazyme ON/OFF ratio": 1.4},
      {"variant": "U7A U8G G9C U10A U11A C12U C13G", "aptazyme ON/OFF ratio": 1.34},
      {"variant": "U7G U8G G9C U10A U11G C12A C13G", "aptazyme ON/OFF ratio": 1.12},
      {"variant": "U7G G9C U10G U11A C12U C13G", "aptazyme ON/OFF ratio": 1.28},
      {"variant": "U7A U8C G9U U10C U11A C12G C13A", "aptazyme ON/OFF ratio": 1.11},
      {"variant": "U7G U8G G9U U10C U11C C13U", "aptazyme ON/OFF ratio": 1.37},
      {"variant": "U8C U10G U11G C13G", "aptazyme ON/OFF ratio": 1.2},
      {"variant": "U7G G9A U10G C12U", "aptazyme ON/OFF ratio": 1.14},
      {"variant": "U10C U11A C12A", "aptazyme ON/OFF ratio": 1.48},
      {"variant": "U8A G9A U11G C12A C13A", "aptazyme ON/OFF ratio": 1.14},
      {"variant": "G9U U11A C12G C13U", "aptazyme ON/OFF ratio": 1},
      {"variant": "U7A G9U U10C U11A C12G C13U", "aptazyme ON/OFF ratio": 1.12},
      {"variant": "U7A U8A G9U U10A U11C C12G C13A", "aptazyme ON/OFF ratio": 1.18},
      {"variant": "U8G U11A C12G C13G", "aptazyme ON/OFF ratio": 1.09},
      {"variant": "U7A U8G G9U U10G C13A", "aptazyme ON/OFF ratio": 1.3},
      {"variant": "U7C G9U U10C U11G C12G C13G", "aptazyme ON/OFF ratio": 1.11},
      {"variant": "U8G G9U U10A U11A C13A", "aptazyme ON/OFF ratio": 1.19},
      {"variant": "U7G G9U U11C C12G", "aptazyme ON/OFF ratio": 1.74},
      {"variant": "U7C U8C G9C U10A U11A C12A C13U", "aptazyme ON/OFF ratio": 1.13},
      {"variant": "U8A G9A U10C U11G C12A C13U", "aptazyme ON/OFF ratio": 1.17},
      {"variant": "U8C U10A C12G C13A", "aptazyme ON/OFF ratio": 1.17},
      {"variant": "U7G U8C G9C U10G U11A C13G", "aptazyme ON/OFF ratio": 1.19},
      {"variant": "U7C G9A U10A U11C C13G", "aptazyme ON/OFF ratio": 1.04},
      {"variant": "U7G U8G G9U U10A U11C C12A C13U", "aptazyme ON/OFF ratio": 1.17},
      {"variant": "U7C U8G G9A U10C U11C C12A C13G", "aptazyme ON/OFF ratio": 1.04},
      {"variant": "U7C U8G U10G U11C C12U C13A", "aptazyme ON/OFF ratio": 1.33},
      {"variant": "U7G U8G C12U C13A", "aptazyme ON/OFF ratio": 1.31},
      {"variant": "U7C U8C G9C U11G C13U", "aptazyme ON/OFF ratio": 1.1},
      {"variant": "U7G G9A U10A C12U C13U", "aptazyme ON/OFF ratio": 1.22},
      {"variant": "U7G G9C U10G C13A", "aptazyme ON/OFF ratio": 1.41},
      {"variant": "U7G U10A U11G C12A C13G", "aptazyme ON/OFF ratio": 1.09},
      {"variant": "U7C U8G G9A U10C U11G C12A C13G", "aptazyme ON/OFF ratio": 1.13},
      {"variant": "U7G U8A G9U U10G U11C", "aptazyme ON/OFF ratio": 1.04},
      {"variant": "U7C U8C G9C U11G C12A C13U", "aptazyme ON/OFF ratio": 1.09},
      {"variant": "U7G U8A G9U U11C C13A", "aptazyme ON/OFF ratio": 1.1},
      {"variant": "U7G U8C G9U U10A U11C C12A C13A", "aptazyme ON/OFF ratio": 1.28},
      {"variant": "U7A U8C G9U U11G C12U C13U", "aptazyme ON/OFF ratio": 1.28},
      {"variant": "U7A G9C U10A U11G C13A", "aptazyme ON/OFF ratio": 1.03},
      {"variant": "U7A U8C U10G U11A C12A C13A", "aptazyme ON/OFF ratio": 1.28},
      {"variant": "U7G U8G G9U C13U", "aptazyme ON/OFF ratio": 1.43},
      {"variant": "U7A U8G G9C U10A U11C C12G C13A", "aptazyme ON/OFF ratio": 1.27},
      {"variant": "U7G U8G G9U U10A U11C C12U C13A", "aptazyme ON/OFF ratio": 1.16},
      {"variant": "U8G G9U U10G C12U", "aptazyme ON/OFF ratio": 1.02},
      {"variant": "U7G G9C U10A U11C C12U C13G", "aptazyme ON/OFF ratio": 1.19},
      {"variant": "U7A U8A U10A U11G C12A", "aptazyme ON/OFF ratio": 1.09},
      {"variant": "U7A U8C G9U U10C U11C C12A C13A", "aptazyme ON/OFF ratio": 1.09},
      {"variant": "U7G U8C G9A U10G C13U", "aptazyme ON/OFF ratio": 1.26},
      {"variant": "U7G U8A G9A U10C U11G C12A C13A", "aptazyme ON/OFF ratio": 1.07},
      {"variant": "U7A G9C U10G U11C C12U C13G", "aptazyme ON/OFF ratio": 1.07},
      {"variant": "U7C G9C U10G U11A C12U C13U", "aptazyme ON/OFF ratio": 1.15},
      {"variant": "U7C U10G U11C C12G C13U", "aptazyme ON/OFF ratio": 1.28},
      {"variant": "G9C C12U C13A", "aptazyme ON/OFF ratio": 1.14},
      {"variant": "U7C U8G G9C U10A U11G C12G C13G", "aptazyme ON/OFF ratio": 1.16},
      {"variant": "U8G G9U U10A U11G C12U C13U", "aptazyme ON/OFF ratio": 1.13},
      {"variant": "U7G U8C G9C U10G U11C C12A C13U", "aptazyme ON/OFF ratio": 1.36},
      {"variant": "U8G U11A C12A", "aptazyme ON/OFF ratio": 1.45},
      {"variant": "U8G U10C C12U C13A", "aptazyme ON/OFF ratio": 1.05}
    ]}
  ]
}
